In the DeepSol protein solubility set:

Assay: soluble on expression in E. coli; label from the status in PepcDB or PDB records

With “MVDGEGITPKTCSEDIIKDLLNDVKSSEKPFSVDKLAGCDQTDFVGKRPKKHHRHKSKKSKKVRRRSKTWSSSRSRSRSRSRSRGRSQERRRSRKSRKSRSRSRLKHREEKIEKKNLEKAPKNELIPQAPSTENGKPKEFKEPPRKDEADDLPLGADFSTPLVKKETKLAISITTVLPKAENKKEVEDGEIEEIAYGDGDFKEPEGIEKNLENKNICENGNLDNSENEKSKEKDKNRKKEKTERKRKRSHSSSDRRGRRTSKESRRRSRSRDTHRTRRRSPERSRRSTETRNERPERPSRWRSRSRERKEYDSYRRRRSRSREVIDKEKLLAIAKTKRAEMMSNGDRDSASIEDFVTYCKKLQRRQEREKRREAGHDVSDHDSDRETVRYKHPYAMPKEPIRINIVTATSANLAQKAITGPEEPTQLGAAQLRIVFPVSSGAVHKENAEWVPVEKEDVPKSCSVEQKKHVALTSLEIDRCRAQGIPVAPAPVPKFLNSILPPPPAPPQFLPNPTDSFRPPTPPPLPSVLYVPNKDQMILKEPKDIPIPAPSDIGKVLKQRTEAQRKVLSTPNDFDAHRALREANEQISLWAALKSLPGEYTGTTGLRLLTADELQPQNPKYHAWVKKDQFRNAAPATGGIGRLMLEKMGWRPGEGLGKDATGNLEPLMLDVKSDRKGLIAEEEMSIKQRNKINAQNNVPVDLSNKNPISLIMELCAKRRWNPPSFSCEESGADHLKMFVWTIVINDVEYRPMCGSKQKKEGKAVAAQVALQSLGVLPMDPNLPVYM” as the sequence, how does the “soluble on expression in E. coli” value read?
Its value is “not soluble”.

With “MQLLITGGTGLIGRHLIQRLQLLSHHITVLTRDPERARGVLGNQVEYWSTLSNITSLNDFDGVINLAGEPIADKRWTPQQKQRLAQSRWSITEQLATLIKASSEPPTVFISGSAVGYYGDQGEALVTEGESPVDEFTHHLCTRWEALAQSAESDKTRVCLLRTGIVLSAQGGALAKMLPIFRLGLGGPMGSGKQYMPWIHIDDMVNGIIYLLDQPILRGPFNMVAPYPVHNEQFSAMLAHVLDRPGFLRAPAFAMKLLMGEASTLVLGGQRAIPQRLEAAGFGFRFFELEEALQDVTKKPGLEHHHHHH” as the sequence, how does the “soluble on expression in E. coli” value read?
Its value is “soluble”.

With “MSQWHHPRSGWGRRRDFSGRSSAKKKGGNHIPERWKDYLPVGQRMPGTRFIAFKVPLQKSFEKKLAPEECFSPLDLFNKIREQNEELGLIIDLTYTQRYYKPEDLPETVPYLKIFTVGHQVPDDETIFKFKHAVNGFLKENKDNDKLIGVHCTHGLNRTGYLICIYLIDVEGVRPDDAIELFNRCRGHCLERQNYIEDLQNGPIRKNWNSSVPRSSDFEDSAHLMQPVHNKPVKQGPRYNLHQIQGHSAPRHFHTQTQSLQQSVRKFSENPHVYQRHHLPPPGPPGEDYSHRRYSWNVKPNASRAAQDRRRWYPYNYSRLSYPACWEWTQ” as the sequence, how does the “soluble on expression in E. coli” value read?
Its value is “soluble”.

For “MGSSHHHHHHSSGLVPRGSHMDLSAASHRIPLSDGNSIPIIGLGTYSEPKSTPKGACATSVKVAIDTGYRHIDGAYIYQNEHEVGEAIREKIAEGKVRREDIFYCGKLWATNHVPEMVRPTLERTLRVLQLDYVDLYIIEVPMAFKPGDEIYPRDENGKWLYHKSNLCATWEAMEACKDAGLVKSLGVSNFNRRQLELILNKPGLKHKPVSNQVECHPYFTQPKLLKFCQQHDIVITAYSPLGTSRNPIWVNVSSPPLLKDALLNSLGKRYNKTAAQIVLRFNIQRGVVVIPKSFNLERIKENFQIFDFSLTEEEMKDIEALNKNVRFVELLMWRDHPEYPFHDEY”, which “soluble on expression in E. coli” value is on record?
The value was “soluble”.

Which “soluble on expression in E. coli” value does the source give for “MAEAPPVSGTFKFNTDAAEFIPQERKTSGLNCGTQRRLDSSRIGRRNYSSSPPCHLPRHIPYEDISAVHQHSYASGSKPKSPQGFFQSSNKSLKNHGLQNQPWQKARNEKHQNRNKKAQGLSEQTSDTSSLESVARSESGTNPREHSPSESEKEVVIADPRGAKPKKAAQLTYNYGRGPKAKGRLRSEWGNRMSPKSEDENTRPVAISHTDSSDASCRKPVVDPCVCRRNEQRRYPQKRPPWEVEGARPRPGRNPPKQESQRHINAGPKTNMSPIPKDNLRERPTKSACDTGNLAVVSKSSRRVNQEKTAVRRQDPQVLSPFPRGKQNHMLKNVETHTGSLIEQLTTEKYECMVCCELVQVTAPVWSCQSCFHVFHLNCIKKWARSPASHADGQSGWRCPACQNVSAHVPNTYTCFCGKVKNPEWSRNEIPHSCGEVCRKKQPGQDCPHSCNLLCHPGPCPPCPAFTTKTCECGRTRHTVRCGQPVSVHCSNACENILNCGQHHCAELCHGGQCQPCRIILNQVCYCGSTSRDVLCGTDVGKSDGFGDFSCLKICGKDLKCGSHTCSQVCHPQPCQPCPRLPHLVRYCPCGQTPLSQLLEHGSNARKTCMDPVPSCGKVCGKPLACGSSDFIHTCEKLCHEGDCGPCSRTSVISCRCSFRTKELPCTSLKSEDATFMCDKRCNKKRLCGRHKCNEICCVDKEHKCPLICGRKLRCGLHRCEEPCHRGNCQTCWQASFDELTCHCGASVIYPPVPCGTRPPECTQTCARIHECDHPVYHSCHSEEKCPPCTFLTQKWCMGKHEELTIKKLWTFKETLDF” here?
The value was “soluble”.

Which “soluble on expression in E. coli” value does the source give for “MKVWIKASALLTLAGLTACSASPTGRNQILMFSDQEMSSLGAKSFDQMKKDIPISKDKKTNAYVQCVAKQITNAIPPQAGFKDWEVVVFDSDQVNAFALPGGKIGVYTGLLKVAKNQDQLATVIGHEVAHVLAEHSNERLSQSQLANAGLSLANVAIGASEYKQYQQLTMAALGVGVQYGVILPYGRTQESEADIVGLEYMAKAGFNPNQSVDLWKNMSAASGGAQPPEFFSTHPSHSTRIKDLQATINKLPKYNVKAPKCGLEHHHHHH” here?
Its value is “not soluble”.

With “MNEIKNLKQYSKAAERFEGAHLLCPGCAHGMIVREVLNATDDPLILSSATGCLEVSTAVYPYTSWDVPWIHIGFENSSTAVAGAEAMYKALERKGKLYSEKKPKFVAFGGDGSTYDIGFQYISGCFERGHNMTYICLDNEVYANTGGQRSGSTPIGASTTTTPAGRVSYGKKDKKKDILQIMAAHGAPYVAQVAPNKWKDMAKKLKMALETEGPTFINAMSACTTEWKFESNLTVEVSDLAVDSLVFPLYEIINGTELNITYRPKNIVPVRDYLAAQGRFKHLFKKENEHIIEQWQKEVDARWVYLQKREEARV” as the sequence, how does the “soluble on expression in E. coli” value read?
Its value is “not soluble”.

For “MKIGIIGATGKAGSRILKEALDRGHEVTAIVRNAAKITEENVKVLEKDVFSLTSNDLQAFDVVVNAFGAPAGHDHLHVDAGNVLIEAMKGAPNTKLVVVGGAGSLFVDEEKTTRVFETPGFPEEYLATAQNQGKNLEILQQTNDITWTFISPSALFALGKRTGSYKAGKDNLLVNAKGDSYVSYEDFAVAALDEIENPKHVNERFTVVSEAELEHHHHHH”, which “soluble on expression in E. coli” value is on record?
Its value is “soluble”.

Which “soluble on expression in E. coli” value does the source give for “GPGSMNIRQRKSERHKEVLRKLSQNGGNKNCFDCGMRGPLYVVSDFGILVCSGCSAVHRSFQHKVKGITMSEFTDDEIARFSVSGNDRARKVWLSTFHDQLPRSGNVMALKDHVHVVFEERRFWSAQELSA” here?
Its value is “soluble”.

For “MKEGMKVVLVGSPGIEGTWILAKDYDQLLLEKGISREIIEKAKEFKKDIVVQPKALSILDYVVAMHDATEGGIMQAMLEVAKASGYTVSINLDKIVLRRETKIITKALNIDPLRLISSGSFIAVSNTPEKILERISEAYIIGEIKRGDPVLEIK”, which “soluble on expression in E. coli” value is on record?
The value was “soluble”.

For “MTLRCSDVNVEPLPGTAKTGSGFVLLEHAGSWSRDVLDGGTFDPELTDQLKRHLKASGMGLQLIRKPGREGRNVEKHNLFLVFAEASIIEHLVVDAPADVLDLDLSGPGKNNAQRMDDPMLLICTHSKRDVCCAIKGRPLAAAVEPQFGPLHVWEASHTKGHRFAPSMLLMPWNYSYGLLDEAETVQLFQGALDNKLFLPGNRGRGTLDARGQVAEIAVAEAFGEAVAPASLQVEFEDDSVLVTHPDGRTWVVELERIEVDGVVSSCGDQPKTGKAWVARQVTELIG”, which “soluble on expression in E. coli” value is on record?
Its value is “not soluble”.

Which “soluble on expression in E. coli” value does the source give for “MGSDKIHHHHHHMQKLASGEQLMKVNGDTVATQGQLAKLLPLQHIDPQSTDIIDHGAKPRRQLLDWLMFHVEPEFYFAWQYYSRALKQRNTLLKTRRNLSLADLEPWNKMLSDYGEILHSQRLSIVEQWNVYFQNDLSQLLPDLEIELEYSPGFHTEQGLMQDLLNQHQKDIERRYTEYGPHRADLRLKTPFGHADDVLSRGQKKLLIIALKLSQIAMLHASNKETVVLLDDLTAELDLTAQQRLIERLSQLGSQVFMTTLDHASVKKHLHDLSISYQLFSVESGQVSLAAS” here?
The value was “not soluble”.

With “MGSDKIHHHHHHMFMVKITILSPEGRSCSVWSLKNEIEKLGAKCDIFLLSSPENLMSHDFKLETDLIHSRCGIGDYFDRLTLYSWQFINALEVEGCRFINPIKTLYLTSDKFKCIKLLAKNKIKTPKTALIRDYEDAVKFIEKYNLRFPVVIKNSFSKCGLKVFMARNYDELKQLTKNAIWEGKLIQEFIDFKENDLYRDMRILVVDGEVVGGYRRVSRDFRTNLYLGNVVEKLNIDEELEELALKCADLSEAVILGVDILPTKDNYYVIELNSSPGTKGFRDIGINADKKIAEALVRYAKS” as the sequence, how does the “soluble on expression in E. coli” value read?
Its value is “not soluble”.

With “MDKRLLKRLSAPLLAAALWTIPLHSHADTQPLTSQDTKLLTSQIVDQYAEHIFYNSGAVGMALVVIDNNQVVNRSFGETQPGNNIRPRPDSLIRIASITKLMTSEIMVKLADDGIVKLTDPLKKYAPKGVNVPSYSAKQPIRLLHLASHTSGLPREQPGGPQKRPVFTWPTKDNRWQWLKLAKVTVPPGVKAAYSNLAYDLLADALSRAAGKPYAHLLRDKITAPLGMKNTTLTPTAEQCKRLMIGVGSSRCGNTVAAAGSGGIYSTPEDMQHWMQQFLASDNSAPKRSAKREQALYFQRGDLVSLKGMDVAGQADALGLGWVYMAPKADLPGIMQKTGGGGGFITYMAMVPEKNIGVFVVVTRSQLTKFSNMSDGVNQLVAELVKNH” as the sequence, how does the “soluble on expression in E. coli” value read?
Its value is “not soluble”.

Which “soluble on expression in E. coli” value does the source give for “MSLRLKWEGTFADYLEIIKENPMVAQSAHSRVFNMIKDSGIEEIDGRKKYSFFDRELFGLEESLERLVEEYFHPAAKRLDVRKRILLLMGPVSGGKSTLVTMLKKGLEAYTLTDNGAVYAIKGCPMHEDPLHLIPHHLRDDFYREYGIRIEGSLSPLNVMRLEEEYGGRIEDVKVERIFFSEDKRTGIGTFSPSDPKSQDIADLTGSIDFSTIAEYGSESDPRAYRFDGELNKANRGMMEFQEMLKCDEKFLWHLLSLTQEGNFKAGRFALISADELIVAHTNETEYRSFISNKKNEALHSRIIVMPVPYNLKVSEEERIYEKMIAESDVADVHIAPHTLKVAAMFSILTRLKEPKRSDIDLVKKMRLYDGESVEGYNSVDVEDMKKEYNDEGMSGIDPRYVINRISSTIIRKNMESINSLDVLRSLKEGLDQHPSISSEDRERYLNFISAARKEYDDIAKKEVQKAFVYSYEESAKTLMDNYLDNVEAYCNKNKLRDPLTGEEMNPDEKLMRSIEEQIGISENAKKAFREEILIRISAYARKGKRFDYNSHERLREAIQKKLFADLKDVVKITTSTKTPDEQQLKKVNEVVARLIDEHGYNSTSANELLKYVGSLLNREGHHHHHH” here?
Its value is “soluble”.

Which “soluble on expression in E. coli” value does the source give for “MSLIHYIPMFGKIKLTNLEIKMGNELISIKEEGDYFLYLRRDVERVIVGDYLQILPAPARGYGVKLMMVKLKRPIALAPGKSIEGFIQVPVEVSVKVGDSEIDRFGIGREKYALYGTLENGVIVRYCTGYIGNEPNGLGNLKVKIVNKGEDWGFIDRIVFPMLDLMYYSKDKAFYPLIRVEIQEDINVINTGEAPLPNLVSTGEEKSLRFRMRWEGHHHHHH” here?
Its value is “soluble”.

With “MRKTWLSLLLLFILALSACGNAADDQKNNSASPKEKKPETITYQSENGPVEVPADPKRVVVLSTFAGHVLALDVPIVGVDSWSKMSPLFQEKLKDAEVVTDEDIEKIMALKPDLIIGLSNTKKVDKLSKIAPTVTFTYGKVDYLTQFLEIGKLLNKEKEAKAWIDDFKQRAQQAGEEIRAKIGENATVTVAENFDKQLYVFGNNWARGTEILYQEMKLKMPKAVEEQALKPGYYAVSLEALPQFVGDYLILSKNGDGDTSFMETNTFKNIPAVKNGHMFVADAKAFYFNDPITLDYQLDFFKKHFLGQ” as the sequence, how does the “soluble on expression in E. coli” value read?
Its value is “not soluble”.
